Experimental data as given in patent US20180244758A1 (MAPP BIOPHARMACEUTICAL, published 2018).

Tests used:
Assay in all cases: cell-based or functional assay
[1] = target: T1, EBOV GP on rVSV particles (Ebola virus (EBOV), UniProt Q05320 33-676)
T1 sequence: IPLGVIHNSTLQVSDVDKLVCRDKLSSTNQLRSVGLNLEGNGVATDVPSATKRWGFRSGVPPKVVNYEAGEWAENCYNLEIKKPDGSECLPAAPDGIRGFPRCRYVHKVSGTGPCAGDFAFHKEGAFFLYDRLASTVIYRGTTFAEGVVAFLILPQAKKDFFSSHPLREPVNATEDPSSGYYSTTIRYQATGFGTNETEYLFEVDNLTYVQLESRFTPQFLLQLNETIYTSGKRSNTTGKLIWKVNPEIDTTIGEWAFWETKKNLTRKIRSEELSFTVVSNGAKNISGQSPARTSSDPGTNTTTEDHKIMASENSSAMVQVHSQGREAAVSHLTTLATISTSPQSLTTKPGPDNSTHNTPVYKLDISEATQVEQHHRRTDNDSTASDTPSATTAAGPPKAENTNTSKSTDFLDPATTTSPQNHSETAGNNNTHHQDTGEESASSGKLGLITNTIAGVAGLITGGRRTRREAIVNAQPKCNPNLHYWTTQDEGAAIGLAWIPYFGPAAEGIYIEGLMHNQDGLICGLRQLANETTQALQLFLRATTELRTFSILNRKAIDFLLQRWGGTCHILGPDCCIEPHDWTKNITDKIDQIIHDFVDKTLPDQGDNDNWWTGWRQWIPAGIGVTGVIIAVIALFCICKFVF

[2] = target: T2, SUDV GP on rVSV particles (Sudan virus (SUDV), UniProt Q66814 33-676)
T2 sequence: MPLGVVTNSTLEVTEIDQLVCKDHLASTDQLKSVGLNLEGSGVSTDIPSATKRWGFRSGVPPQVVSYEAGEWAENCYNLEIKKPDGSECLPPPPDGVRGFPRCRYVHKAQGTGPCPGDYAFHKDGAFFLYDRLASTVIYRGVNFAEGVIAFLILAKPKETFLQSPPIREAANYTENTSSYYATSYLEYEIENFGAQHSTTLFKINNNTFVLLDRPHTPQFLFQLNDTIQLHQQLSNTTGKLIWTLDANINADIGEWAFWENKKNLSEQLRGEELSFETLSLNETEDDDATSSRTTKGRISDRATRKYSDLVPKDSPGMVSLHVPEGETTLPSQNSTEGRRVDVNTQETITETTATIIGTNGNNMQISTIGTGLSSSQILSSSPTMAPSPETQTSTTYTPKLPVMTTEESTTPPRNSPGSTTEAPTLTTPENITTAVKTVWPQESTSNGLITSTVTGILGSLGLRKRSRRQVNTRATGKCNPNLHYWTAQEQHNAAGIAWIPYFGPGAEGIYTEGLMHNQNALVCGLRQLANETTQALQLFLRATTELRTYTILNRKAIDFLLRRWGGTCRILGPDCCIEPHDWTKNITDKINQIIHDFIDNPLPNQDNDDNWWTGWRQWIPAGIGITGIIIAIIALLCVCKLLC

[3] = target: BDBV GP on rVSV particles (Bundibugyo virus (BDBV))
[4] = target: T3, RESTV GP on rVSV particles (Reston virus (RESTV), UniProt Q66799 34-677)
T3 sequence: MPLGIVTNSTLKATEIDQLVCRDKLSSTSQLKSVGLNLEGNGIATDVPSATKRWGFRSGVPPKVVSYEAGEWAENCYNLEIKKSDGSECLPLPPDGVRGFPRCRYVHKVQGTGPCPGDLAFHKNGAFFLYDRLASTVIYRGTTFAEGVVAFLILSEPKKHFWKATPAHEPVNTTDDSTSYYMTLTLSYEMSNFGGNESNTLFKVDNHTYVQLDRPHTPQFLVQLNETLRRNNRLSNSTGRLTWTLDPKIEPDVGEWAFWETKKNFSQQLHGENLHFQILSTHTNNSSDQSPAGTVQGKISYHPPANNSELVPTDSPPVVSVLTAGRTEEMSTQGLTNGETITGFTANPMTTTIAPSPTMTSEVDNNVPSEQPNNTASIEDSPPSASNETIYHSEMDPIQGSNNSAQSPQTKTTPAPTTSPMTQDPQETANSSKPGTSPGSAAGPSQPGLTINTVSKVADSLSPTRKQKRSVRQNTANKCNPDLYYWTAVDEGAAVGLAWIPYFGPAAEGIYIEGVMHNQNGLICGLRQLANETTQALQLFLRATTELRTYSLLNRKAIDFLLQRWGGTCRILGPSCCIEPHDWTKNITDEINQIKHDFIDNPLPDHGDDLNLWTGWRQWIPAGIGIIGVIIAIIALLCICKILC

[5] = target: T4, TAFV GP on VSV pseudotype particles (Tai Forest virus (TAFV), UniProt Q66810 33-676)
T4 sequence: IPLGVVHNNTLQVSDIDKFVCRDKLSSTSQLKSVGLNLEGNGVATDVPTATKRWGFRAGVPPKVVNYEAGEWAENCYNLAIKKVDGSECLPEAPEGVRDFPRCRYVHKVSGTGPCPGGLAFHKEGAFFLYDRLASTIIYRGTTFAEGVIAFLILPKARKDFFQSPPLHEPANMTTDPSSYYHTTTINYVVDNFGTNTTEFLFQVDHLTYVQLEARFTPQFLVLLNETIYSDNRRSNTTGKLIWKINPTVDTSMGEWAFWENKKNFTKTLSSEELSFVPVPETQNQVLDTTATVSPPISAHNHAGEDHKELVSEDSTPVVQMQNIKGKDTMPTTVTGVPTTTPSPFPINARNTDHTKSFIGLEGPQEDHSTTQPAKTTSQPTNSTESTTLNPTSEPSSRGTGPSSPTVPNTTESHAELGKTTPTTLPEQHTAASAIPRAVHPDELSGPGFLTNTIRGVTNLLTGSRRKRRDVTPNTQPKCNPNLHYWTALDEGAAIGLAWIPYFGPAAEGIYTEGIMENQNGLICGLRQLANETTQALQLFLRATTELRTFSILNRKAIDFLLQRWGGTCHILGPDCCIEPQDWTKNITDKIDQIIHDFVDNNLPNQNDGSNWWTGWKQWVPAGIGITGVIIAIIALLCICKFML

B1: mAb PE-87 (antibody, V domains shown)
VH: QVQLVQSGVTLVQPGGSLRVSCAASGFTFSSYAMSWVRQAPGKGLEWVSAISGLGGSTYYADSVKGRFTISRDNSKNTLYLQMNSLRAEDTAVYYCAKDHRVWAAGYHFDYWGQGALVTVSS
VL: DIVLTQSPSTLSASVGDRVTITCRASQSISSWLAWYQQKPGEAPKLLISDASSLESGVPSRFSGSGSGTEFTLTISSLQPDDFATYYCQQYYSSPTFGGGTKVEIK
IC50 (nM), neutralization of rVSV-GP [1]: 1 nM | IC50 (nM), neutralization of rVSV-GP [2]: 0.8 nM | IC50 (nM), neutralization of rVSV-GP [3]: 0.4 nM | IC50 (nM), neutralization of rVSV-GP [4]: 0.1 nM | IC50 (nM), neutralization of rVSV-GP [5]: 0.9 nM
